The results in this text go back to IntAct's records for PubMed 34948388.

First the molecules themselves.
B1: Multifunctional methyltransferase subunit TRM112-like protein (Homo sapiens), Q9UI30 (parent)
chain: MKLLTHNLLSSHVRGVGSRGFPLRLQATEVRICPVEFNPNFVARMIPKVEWSAFLEAADNLRLIQVPKGPVEGYEENEEFLRTMHHLLLEVEVIEGTLQCPESGRMFPISRGIPNMLLSEEETES
partner: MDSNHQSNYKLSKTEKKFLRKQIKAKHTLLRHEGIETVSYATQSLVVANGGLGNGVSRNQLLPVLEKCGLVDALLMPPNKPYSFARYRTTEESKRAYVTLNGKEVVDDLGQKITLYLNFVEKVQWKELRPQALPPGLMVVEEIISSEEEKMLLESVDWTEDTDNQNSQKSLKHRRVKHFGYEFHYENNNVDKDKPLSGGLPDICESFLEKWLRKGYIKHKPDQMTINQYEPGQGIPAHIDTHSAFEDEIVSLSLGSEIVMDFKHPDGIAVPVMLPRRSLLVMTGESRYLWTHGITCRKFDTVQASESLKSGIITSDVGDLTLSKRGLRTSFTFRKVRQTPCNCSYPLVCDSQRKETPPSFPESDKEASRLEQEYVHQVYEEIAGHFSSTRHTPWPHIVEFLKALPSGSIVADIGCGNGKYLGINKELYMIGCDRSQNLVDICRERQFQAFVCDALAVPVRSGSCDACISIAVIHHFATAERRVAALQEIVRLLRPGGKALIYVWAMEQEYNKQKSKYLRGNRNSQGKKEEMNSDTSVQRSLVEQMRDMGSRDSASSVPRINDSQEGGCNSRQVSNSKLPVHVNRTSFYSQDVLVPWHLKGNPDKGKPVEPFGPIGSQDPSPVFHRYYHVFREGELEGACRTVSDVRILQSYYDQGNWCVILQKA
B2: Multifunctional methyltransferase subunit TRM112-like protein (Homo sapiens), Q9UI30 (parent)
chain: B1 chain
partner: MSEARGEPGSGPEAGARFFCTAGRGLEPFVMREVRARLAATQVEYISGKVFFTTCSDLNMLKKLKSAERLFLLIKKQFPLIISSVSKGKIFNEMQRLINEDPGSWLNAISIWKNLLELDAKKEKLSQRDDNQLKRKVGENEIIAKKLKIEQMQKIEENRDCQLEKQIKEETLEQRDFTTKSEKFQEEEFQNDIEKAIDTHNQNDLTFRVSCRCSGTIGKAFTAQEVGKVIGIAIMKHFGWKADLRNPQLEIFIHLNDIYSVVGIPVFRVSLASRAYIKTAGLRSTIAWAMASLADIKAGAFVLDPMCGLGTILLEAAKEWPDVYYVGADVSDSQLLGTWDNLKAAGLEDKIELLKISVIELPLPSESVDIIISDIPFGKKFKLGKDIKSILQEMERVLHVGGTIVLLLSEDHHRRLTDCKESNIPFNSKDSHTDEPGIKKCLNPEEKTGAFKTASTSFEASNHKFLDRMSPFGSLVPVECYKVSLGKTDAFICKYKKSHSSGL

One assay covers variants of B1. The conditions noted are these: with alkb8_human ALKBH8, Q96BT7.
As to MKLLTHNLLSSHVRGVGSRGFPLRLQATEVRICPVEFNPNFVARMIPAVEWSAFLEAADNLRLIQVPKGPVEGYEENEEFLRTMHHLLLEVAVIEGTLQCPESGRMFPISRGIPNMLLSEEETES [K48A;E92A], the “effect of a mutation on the interaction” value is “disrupting interaction strength”.
In the case of MKLLTHNLLSSHVRGVGSRGFPLRLQATEVRICPVEFNPNFVARMIPKVEWSAFLEAADNLRLIQVPKGPVEGYEENEEFLRTMHHLLLEVAVIEGTLQCPESGRMFPISRGIPNMLLSEEETES [E92A], the “effect of a mutation on the interaction” value is on record as “decreasing interaction strength”.
As to MKLLAHNLLSSHVRGVGSRGFPLRLQATEVRICPVEFNPNFVARMIPKVEWSAFLEAADNLRLIQVPKGPVEGYEENEEFLRTMHHLLLEVEVIEGTLQCPESGRMFPISRGIPNMLLSEEETES [T5A], the “effect of a mutation on the interaction” value is “disrupting interaction strength”.
Regarding MKLLTHNLLSSHVRGVGSRGFPLRLQATEVRICPVEFNPNFVARMIPKVEWSAFLEAADNLRLIQVPKGPVEGYEENEEFLRTMHHLLLEVEVIEGTLQCPESGRMFPISRGAPNMLLSEEETES [I113A], the “effect of a mutation on the interaction” value is given as “with no effect”.
Still for that read-out and setting: with MKLLTHNLLSSHVRGVGSRGFPLRLQATEVRICPVEFNPNFVARMIPKVAWSAFLEAADNLRLIQVPKGPVEGYEENEEFLRTMHHLLLEVEVIEGTLQCPESGRMFPISRGIPNMLLSEEETES [E50A] the entry was “with no effect”.
Still for that read-out and setting: the entry for MKLLTHNLLFSHVRGVGSRGFPLRLQATEVRICPVEFNPNFVARMIPKVEWSAFLEAADNLRLIQVPKGPVEGYEENEEFLRTMHHLLLEVEVIEGTLQCPESGRMFPISRGIPNMLLSEEETES [S10F] is “with no effect”.
On the same count and under the same terms, with MKLLTHNLLSSHVRGVGSRGFPLRLQATEVRICPVEFNPNFVARMIPAVEWSAFLEAADNLRLIQVPKGPVEGYEENEEFLRTMHHLLLEVEVIEGTLQCPESGRMFPISRGIPNMLLSEEETES [K48A] the entry was “with no effect”.
On to MKLLTHNWLSSHVRGVGSRGFPLRLQATEVRICPVEFNPNFVARMIPKVEWSAFLEAADNLRLIQVPKGPVEGYEENEEFLRTMHHLLLEVEVIEGTLQCPESGRMFPISRGIPNMLLSEEETES [L8W], for which the “effect of a mutation on the interaction” value is “with no effect”.
Still for that read-out and setting: with MKLLTHNLLSSHVRGVGSRGFPLRLQATEVRICPVEFNPNFVARMIPKVEWSAFLEAADNLRLIQVPKGPVEGYEENEEFLRTMHHLLLEVEVIEGTLQCPESGRMAPISRGIPNMLLSEEETES [F107A] the entry was “decreasing interaction strength”.
On the same count and under the same terms, the entry for MKLLTHNLLSSHVRGVGSRGFPLRLQATEVRICPVEFNPNFVARAIPKVEWSAFLEAADNLRLIQVPKGPVEGYEENEEFLRTMHHLLLEVEVIEGTLQCPESGRMFPISRGIPNMLLSEEETES [M45A] is “disrupting interaction strength”.

Variants of B2 are the subject of another assay. The conditions noted are these: with thum2_human THUMPD2, Q9BTF0.
Take MKLLTHNLLSSHVRGVGSRGFPLRLQATEVRICPVEFNPNFVARMIPKVEWSAFLEAADNLRLIQVPKGPVEGYEENEEFLRTMHHLLLEVEVIEGTLQCPESGRMFPISRGAPNMLLSEEETES [I113A]: the “effect of a mutation on the interaction” value is given as “disrupting interaction strength”.
